Assay results published in a protein production outcome set (Wang et al. 2014).

Test: label from the status in PepcDB records

| Sequence | protein production |
| --- | --- |
| MEMESAAASTRFHQPHMERKMSAMACEIFNELRLEGKLCDVVIKVNGFEFSAHKNILCSCSSYFRALFTSGWNNTEKKVYNIPGISPDMMKLIIEYAYTRTVPITPDNVEKLLAAADQFNIMGIVRGCCEFLKSELCLDNCIGICKFTDYYYCPELRQKAYMFILHNFEEMVKVSAEFLELSVTELKDIIEKDELNVKQEDAVFEAILKWISHDPQNRKQHISILLPKVRLALMHAEYFMNNVKMNDYVKDSEECKPVIINALKAMYDLNMNGPSNSDFTNPLTRPRLPYAILFAIGGWSGGSPTNAIEAYDARADRWVNVTCEEESPRAYHGAAYLKGYVYIIGGFDSVDYFNSVKRFDPVKKTWHQVAPMHSRRCYVSVTVLGNFIYAMGGFDGYVRLNTAERYEPETNQWTLIAPMHEQRSDASATTLYGKVYICGGFNGNECLFTAEVYNTESNQWTVIAPMRSRRSGIGVIAYGEHVYAVGGFDGANRLRSAEAYSPVANTWRTIPTMFNPRSNFGIEVVDDLLFVVGGFNGFTTTFNVECYDEKTDEWYDAHGMSIYRSALSCCVVPGLANVEEYAARRDNFPGLALRDEVKYSASTSTLPVRASSFS | failed |
| MIDLRSDTVTKPTEEMRKAMAQAEVGDDVYGEDPTINELERLAAETFGKEAALFVPSGTMGNQVSIMAHTQRGDEVILEADSHIFWYEVGAMAVLSGVMPHPVPGKNGAMDPDDVRKAIRPRNIHFPRTSLIAIENTHNRSGGRVVPLENIKEICTIAKEHGINVHIDGARIFNASIASGVPVKEYAGYADSVMFCLSKGLCAPVGSVVVGDRDFIERARKARKMLGGGMRQAGVLAAAGIIALTKMVDRLKEDHENARFLALKLKEIGYSVNPEDVKTNMVILRTDNLKVNAHGFIEALRNSGVLANAVSDTEIRLVTHKDVSRNDIEEALNIFEKLFRKFS | not failed |
| MSRQPLSREDTAILVPALNEALRIREVVTDALTYCSHVIVIDDGSDDGTAECIAGMPVTLIRHPQRMGKGAALRSGFAQAQRLGMRAVMTMDGDGQHKAADFPRLLAAANRHPGCVIIGARMRKRATQPTIRRIGNDFGDWGIAWGCGFRLIDSQSGQRLYPASVFTLPNVPGEGFVFEAQLLISAARQAGARVVAVPIETRYAGTSPGTFRKSHFRLVRDLWNITSHVVKQVWAYGHVWREYRRVRANPVIVDDPDGEFATVPAVTKSNHSSLEHHHHHH | failed |
| MQPRFLGQLGLADVVTVANAALGFIAAAVAVFDTELAARLILLAAIADGLDGVIARFRGGTPVGPILDSLADVASFGVAPAVLVYALASGGEVTLDEPLAVAAVVVAALYVAMAVVRLGFYLLEDDGAPETVGVQTTLAATVLSVLHLAGVTDPAVFVAATAAFAYLMVASITYPELYARDALILGGLQACVVLFPTAFGRAFPRVLLVFALGYLLLAPVAYWRSTEGKRS | failed |
| MNSIEKELDCGRSVTDQQKIEEVTRQITEHGNELRRRYPVLNYQNALGASAMAVSVTVMVVTGVLYVKGIMPAWLCILVNALSTSIIHELEHDLIHRLYFRKQPLAHNFMMLLCWLTRPGMPSPWLRRGLHFHHHKESGTATDVEAWITTSGNPWGILRLLKLMDGFLFGFVNAVCAPGWRQKMKLLARIIRLNTPFGLLYWGSWYVFLGYHLSTWLGGLAGVPPPSSPLMLQVMNMIDCVVVIVVAPNMIRQFCLYFISSNMHYYGDVAPRNALQQTQVMNHWLLWPFQLFCFNFGSTHSIHHFVVKDPFYLRQMTAPYAHEVMAKAGVRFNDFGTYKRANRFKLDTVQFQSRG | failed |
| MKFDVIIIGSGLAGLTAGIRLAEAGKSCAIISNGQSALHFSSGSLDLLTHLPDGTPVSHPKQALSTLAQQAPEHPYSRIGEANVTQLIEQAQTLLSTTRNLDYKGNGDENHYRITPVGRSRMSWMSPQRVPTYSVNQPFPWKKIAVVGIEGFLDFQPQFASSTLNEQGIEAIPYHIHLPLLDRLRDNPSEFRAINIARYLDKPENTQALAEELIKHIDNSVEAIVLPACIGLDEEAPVNLLQECVGKPICLLPTLPPSLLGIRLHQALKLRFQQAGGLIMPGDRAEEADLVGNKVVGIHTRNHTDIPIRSEHVVLATGSFFNNGLIAEFDRIYEPLMELDLLESLPRNEWTQVNVFAKQPYMRFGVNTDSQLRPLKYGEALDNVYAVGALLGGFDPLNEGCGAGVSMISALYAAQQILQSDKSQHTTSAAVEAVL | not failed |
| MEISTKTLHFIEEHREDDTRTLALQSKKYPDVDMAAAVTQIAGRQVAARKIPSWYPVSALWYPPHLSMEQCSSEATALYKASLLEGDTFADLTGGFGIDCSFISRNFKQADYVERQSGLCELALHNFPLLGLGHIRIHNRDGISYLQEMLPVDCLFLDPARRDGHGGKTVAISDCEPDVTVLEPLLVDKAKKVMVKLSPMLDLSLALNELKTVRAVHIVAVNNECKELLLILQKESVSSEVSIHCEHIAGNGESRHYTFTLKQEKTSPCLLADEVGTYLYEPNAAILKAGAFRSLTQTYPVAKLHLNSHLYTSVSLVPDFPGRRFRVEAVSGFGKKELKAFLMDMDKANITIRNFPLSVAELRKRLKLKEGGDDYIFATTLSGGQKVLIRGKKC | not failed |
| LRESEARLKGIAGNVPGLVFRLERDPAEGDLEFPYISEGSEALVGYAPSEIQHPQMGLRNLVHPEDRADYHRVQDLALASDQDWSWQGRILTRQGEQRWADIKASARHLGNGQVVWDGVVWDITQGKRAELALAKSQEQLRELSAHLESVREEEKARIAREVHDELGQM | not failed |
| METRFVTPFHHLLVNNLVANITNFTIWFALTFYVYLETKSVFATGMIAGVYLVLTAACGIWFGSLVDHHRKKLAMAGSSLASLLLYALALAVLLLAPKGAIADVGRPWLWALIGLSMLGVIAGNIRTIALPTLVTLLIPEDRRDKANGLVGMVSGVGFLTTSVISGFLVAWGGMLAALTFALGFTVAALVHLLTVPVDEPRVEAEHGAPVAPRRIDLAGTIKVVAAVPGLFALILFATFNNFLGGIFMALLDAYGLSMVSVQAWGLLFGFLSVAFIISGLAISKTGLGKNPLRTLLLVNLISWAVCCVFPLKSSIVMLAMGCFVWMLLGPYAEAAEQTTLQKVVPFERQGRVFGFAQSVEQAASPLTAFLIGPLTQFIVIPFMTHGAGAAAIGDWFGRGPDRGMALVFTLAGVVGLIVTLLAFGSKAYRQLSAAYAQGEPAPAA | failed |
| MRRAAGKPRARRNTACHAAGILKKYPSVSALGCTFHDARQTSRCDENDKTNETMSSALLLVPDFSLILIGWLLVRYTPFDRGFWAGVERLVYFVLFPALLLQSTNSAKFDFSSTSAMLGLALLTMVFGMATGYLVKWVLRPAPADFASGLQTAFRFNSYIGLALAARLGNGEGLALMALVVGVTVPLCNVVAVWALAKHGEARVLRELVRNPLILATATGLVTNLLGLHPPEVVAMTLNRLGSASTALGLMTVGAGLQMSGATGTAGPMAWWSGVKLLAMPCFAWLVGKYLPLTPLQYQIVVVYASLPTASSSYILAVRMGGNGPMVAATISAMTVVAIVTTPVWLSLVS | failed |
| SNDQYHRAARDGYLELLKEATRKELNAPDEDGMTPTLWAAYHGNLESLRLIVSRGGDPDKCDIWGNTPLHLAASNGHLHCLSFLVSFGANIWCLDNDYHTPLDMAAMKGHMECVRYLDSIAAKQSSLNPKLVGKLKDKAFREAERRIRECAKLQRRHHERMERRYRRELAERSDTLSFSSLTSSTLSRRLQHLALGSHLPYSQATLHGTARGKTKMQKKLERRKQGGEGTFKVSEDGRKSARSLSGLQLGSDVMFVRQGTYANPKEWGRAPLRDMFLSDEDSVSRATLAAEPAHSEVSTDSGHDSLFTRPGLGTMVFRRNYLSSGLHGLGREDGGLDGVGAPRGRLQSSPSLDDDSLGSANSLQDRSCGEELPWDELDLGLDEDLEPETSPLETFLASLHMEDFAALLRQEKIDLEALMLCSDLDLRSISVPLGPRKKILGAVRRRRQAMERPPALEDTEL | not failed |
| MHVVQGAKTMWNKIQVVSHGRGGLRSQCCETTMIGHPTPTPAQDSETQPSPQEHIPEKKPLPKEIGGRDGPEPTRYGDWEKNGRCIDFLEHHHHHH | failed |
| MSLRTGKTNVIALVLSVDEELMGFTSQMVFGITEVLSTTQYHLVVTPHIHAKDSMVPIRYILETGSADGVIISKIEPNDPRVRFMTERNMPFVTHGRSDMGIEHAFHDFDNEAYAYEAVERLAQCGRKRIAVIVPPSRFSFHDHARKGFNRGIRDFGLTEFPIDAVTIETPLEKIRDFGQRLMQSSDRPDGIVSISGSSTIALVAGFEAAGVKIGEDVDIVSKQSAEFLNWIKPQIHTVNEDIKLAGRELAKALLARINGEAAETLQSISGPVWSSMAPKEGHHHHHH | not failed |
| GLTTPLRELVENGFREGRIKIISSTPTLAAGLNLPARRVIIRSYRRYSSDSGMQPIPVLEYKQMAGRAGRPRLDPYGEAVLLAKSYEEFVFLFEKYIEAGAEDIWSKLGTENALRTHILSTISNGFA | failed |
| SLENERLIKMSRFSERGYVVRENGPVYFTKDMDKTVKWFEEILGWSGDIVARDDEGFGDYGCVFDYPSEVAVAHLTPFRGFHLFKGEPIKGVAGFMMIEGIDALHKYVKENGWDQISDIYTQPWGARECSITTTDGCILRFFESIQEG | not failed |
| MSSSSSKIVVYAALVGNLLIALSKFIAAYFTNSAAMLSEAIHSVVDSLNEILLLYGLKKSQKPANYRHPFGYGRELYFWAFIVALLVFALGAVVSIYQGVSHILQPEEMKYPLVNYLVLGFAILCEGASWWVAVKNFKKMKGSLGYFEAFKRSKDPTTFTVLFEDSAALIGLIIALIGITAAQFLQIPILDGVASVLIGVVLAVSAFLLARETKGLLLGETADPELRKNVLRIAQDDEAVYSANGVLTEQIGAHQVIASLSLEFKDGLISDEIENCVNRIEAQIKQIHPEIVALFIKPQSNEVWLERMKGRLNQQNGEIVAAKVK | failed |
| MDAKEVSAHWESNAETWTMLSRAGHDRYRDTLNTPAFLAMLPPVAGLKGLDLGCGEGTNTRTVARLGASMTGLDIAPTFLRHARDAERRDPLGIDYVLGDGLTLPFADRSFDFVTAFMSMMDMVDQAAVLREVARVLKPGGFLQFSILHPCFVPPTRRNIRDAEGAPVAVEVADYFDESDGRVERWLFSSISAEQQAALTPFAVPRFHRTLSTWVAMIVGARLSIEAFGEPRASEEVAAAEPIVADTRVAPIFLHVLAKRPTTP | failed |
| MLTGIGAIVFDLDGTLYQSESLGGQIAACADRYLADLLSVSPEEAGEIVRRVRRELTARFGREASLSDACRELGGDLRELHRRFAAEVAPEPHLRRDSRVVQLLRTLGANRELYLYTNNNRALSGRIMDAIGVTGLFRRVVTIEDSWRPKPDLQALEALFAALGRKPSECLFVGDRYDIDLRLPAELGCSVYLSRTVDELLGLTLPLSEEQQ | failed |
| YTVEPVQDGERSVTLRRAGGTPLVAAMYHLPAAGSPDFVGLDLAATILADTPSGRLYHALVPTKLASGVFGFTMDQLDPGLAMFGAQLQPGMDQDKALQTLTATLESLSSKPFSQEELERARSKWLTAWQQTYADPEKVGVALSEAIASGDWRLFFLQRDRVRDAKLDDVQRAAVAYLVRSNRTEGRYIPTEKPQRAPLAQR | failed |
| MARSIDYGNLMHRAMRGLIQSVLEDVAEHGLPGAHHFFITFDTTHPDVAMADWLRARYPQEMTVVIQHWYENLSADDHGFSVTLNFGNQPEPLVIPFDAVRTFVDPSVEFGLRFETHEEDEEEETGGDEDPDGDDEPPRHDAQVVSLDKFRKLEHHHHHH | failed |
| MQDKYGVNHDHYCYESSDVLINLLNIRDPDELTQAEADFNLIRYSEYCSDLDELEDFDSNHFLNLHWVLFQDIYEWAGTIRDVDISKANTRFCTCSRVEPELNKAISRIPLIRFCRNKHELVALVADIFSDLNVVHPFREGNGRTTRFFFEELLHVAGYRIEWPVITKEEWVDANIHGYFGQLHKLEVIFDAAIIESLEHHHHHH | failed |
| MVVRTWRSMQERYNLIGSKCKTCGTVYFPARSVCPECRRKGELEDYKLNGKGKVYTYSVVYAAPKDFEKQSPYVIGIVELEEGTKITSQIDCEPEEVKIGMPVEATFRKIREDGCDGVISYGYKFVPTEQLEHHHHHH | failed |
